± gives the uncertainty stated by the source.
Experiment: self-splicing fitness, log relative to wild type (ln ratio); higher = more splicing; Tetrahymena group I intron in knt gene, E. coli kanamycin selection, DiMSum; sequences stand for … in CUCUCU…GGAGGGAAAAGUUAUCAGGCAUGCACCUGGUAGCUAGUCUUUAAACCAAUAGAUUGCAUCGGUUUAAAAGGCAAGACCGUCAAAUUGCGGGAAAGGGGUCAACAGCCGUUCAGUACCAAGUCUCAGGGGAAACUUUGAGAUGGCCUUGCAAAGGGUAUGGUAAUAAGCUGACGGACAUGGUCCUAACCACGCAGCCAAGUCCUAAGUCAACAGAUCUUCUGUUGAUAUGGAUGCAGUUCACAGACUAAAUGUCGGUCGGGGAAGAUGUAUUCUUCUCAUAAGAUAUAGUCGGACCUCUCCUUAAUGGGAGCUAGCGGAUGAAGUGAUGCAACACUGGAGCCGCUGGGAACUAAUUUGUAUGCGAAAGUAUAUUGAUUAGUUUUGGAGUACUCGUGGUCG
Procedure, shortened: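 Pooled colonies went to amplicon sequencing on an Illumina HiSeq 2500 after six replicate transformations. The plates were LB agar with 100 μg/mL carbenicillin, 50 μM IPTG and 0.2% rhamnose, with or without 25 μg/mL kanamycin, incubated overnight at 37°C or 30°C. The E. coli BL21(DE3) library had all eight P1ex-region intron nucleotides randomised, the intron placed in the knt kanamycin-resistance gene on pET-22b(+). DiMSum fitness is the error-weighted combination of replicate fold changes, kanamycin against none, normalised to wild type.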

Sequence | self-splicing fitness (ln) (30 °C) | self-splicing fitness (ln) (37 °C)
AGCUAGCAAUAUUACGGGGU | -2.6 ± 0.16 | -2.13 ± 0.18
AGCUAGCAAUAUUACGGUAC | -2.2 ± 0.26 | -1.1 ± 0.24
AGCUAGCAAUAUUACGUAAC | -2.01 ± 0.15 | -0.993 ± 0.16
AGCUAGCAAUAUUACGUCGA | -2.69 ± 0.2 | -1.9 ± 0.14
AGCUAGCAAUAUUACGUCUC | -4.51 ± 0.39 | -2.86 ± 0.29
AGCUAGCAAUAUUACGUGAG | -2.57 ± 0.12 | -2.28 ± 0.16
AGCUAGCAAUAUUACGUGAU | -3.09 ± 0.15 | -1.79 ± 0.15
AGCUAGCAAUAUUACGUGCC | -2.52 ± 0.36 | -1.84 ± 0.27
AGCUAGCAAUAUUACGUGGU | -2.52 ± 0.17 | -2.18 ± 0.24
AGCUAGCAAUAUUACGUUCG | -2.57 ± 0.14 | -2.41 ± 0.23
AGCUAGCAAUAUUACGUUCU | -1.07 ± 0.062 | -0.621 ± 0.08
AGCUAGCAAUAUUACGUUGU | -2.56 ± 0.17 | -2.32 ± 0.22
AGCUAGCAAUAUUACGUUUA | -2.69 ± 0.14 | -1.46 ± 0.098
AGCUAGCAAUAUUACGUUUC | -4.92 ± 0.25 | -2.56 ± 0.16
AGGAAGCAAUAUUACGAACU | -0.35 ± 0.097 | 0.434 ± 0.13
AGGAAGCAAUAUUACGAAGA | -2.9 ± 0.34 | -1.61 ± 0.32
AGGAAGCAAUAUUACGAAUA | -2.74 ± 0.36 | -1.11 ± 0.27
AGGAAGCAAUAUUACGAGCU | -0.467 ± 0.082 | 0.0249 ± 0.1
AGGAAGCAAUAUUACGAUCA | -0.344 ± 0.091 | -0.31 ± 0.09
AGGAAGCAAUAUUACGCAGA | -3.5 ± 0.31 | -1.33 ± 0.14
AGGAAGCAAUAUUACGCGAC | -2.62 ± 0.45 | -0.793 ± 0.31
AGGAAGCAAUAUUACGCUAU | -3.03 ± 0.21 | -2.35 ± 0.2
AGGAAGCAAUAUUACGCUCU | -2.56 ± 0.22 | -1.99 ± 0.29
AGGAAGCAAUAUUACGGAAA | -2.92 ± 0.23 | -2.26 ± 0.18

Sequence | self-splicing fitness (ln) (30 °C) | self-splicing fitness (ln) (37 °C)
AGGAAGCAAUAUUACGGACU | -0.293 ± 0.11 | -0.668 ± 0.097
AGGAAGCAAUAUUACGUAUA | -1.79 ± 0.17 | -2.16 ± 0.24
AGGAAGCAAUAUUACGUUCU | -3.47 ± 0.28 | -1.59 ± 0.17
AGGCAGCAAUAUUACGACAG | -1.61 ± 0.18 | -1.54 ± 0.23
AGGCAGCAAUAUUACGAGGU | -2.14 ± 0.15 | -2.68 ± 0.26
AGGCAGCAAUAUUACGAUGC | -3.17 ± 0.15 | -2.8 ± 0.18
AGGCAGCAAUAUUACGCCAA | -0.987 ± 0.25 | -0.179 ± 0.25
AGGCAGCAAUAUUACGCCAG | -0.444 ± 0.14 | -0.82 ± 0.25
AGGCAGCAAUAUUACGCCUC | -3.08 ± 0.33 | –
AGGCAGCAAUAUUACGCGAA | -1.54 ± 0.095 | -0.675 ± 0.13
AGGCAGCAAUAUUACGCGGC | -3.85 ± 0.24 | -2.39 ± 0.17
AGGCAGCAAUAUUACGCUGU | -3.99 ± 0.16 | -3.28 ± 0.2
AGGCAGCAAUAUUACGGAGC | -3.51 ± 0.14 | -3.32 ± 0.26
AGGCAGCAAUAUUACGGAGU | -3.02 ± 0.22 | -2.09 ± 0.16
AGGCAGCAAUAUUACGGAUA | -1.85 ± 0.22 | -2.11 ± 0.22
AGGCAGCAAUAUUACGGCAA | -0.539 ± 0.069 | -1.11 ± 0.085
AGGCAGCAAUAUUACGGCGA | -0.378 ± 0.075 | -0.154 ± 0.091
AGGCAGCAAUAUUACGGGGC | -3.89 ± 0.37 | -2.07 ± 0.23
AGGCAGCAAUAUUACGGGGG | -3.34 ± 0.21 | -2.98 ± 0.23
AGGCAGCAAUAUUACGGUCU | -3.15 ± 0.24 | -2.61 ± 0.25
AGGCAGCAAUAUUACGGUUA | -0.809 ± 0.077 | 0.285 ± 0.08
AGGCAGCAAUAUUACGUAAU | -1.94 ± 0.088 | -0.867 ± 0.088
AGGCAGCAAUAUUACGUACU | -0.408 ± 0.079 | 0.323 ± 0.12
AGGCAGCAAUAUUACGUAUU | -1.41 ± 0.095 | -1.22 ± 0.12

From the supplement of paper PMC7877785
